Tests used:
Ca2+/Calmodulin = Ca2+/Calmodulin (UniProt P0DP23 2-149); test: tryptophane fluorescence, 10 µM peptide, equimolar Calmodulin, excess calcium
[1] = target: Apocalmodulin (Calcium-free Calmodulin) (UniProt P0DP23 2-149); test: tryptophane fluorescence, 10 µM peptide, equimolar Apocalmodulin, 1 mM EGTA

B1: Munc13-1 peptide reflecting the Calmodulin binding site of rat Munc13-1 (peptide)
peptide: CRAKANWLRAFNKVRMQLQEAR
notes: Synthesized and purified by standard procedures; used at 10 uM in the tryptophane fluorescence assay; also called peptide 13-1; Munc13-1 derived peptide
- binding result (Ca2+/Calmodulin): binds
- binding result [1]: binds

From patent publication US20060008800A1 (published 2006)
